Assay results: patent US20030190687A1 (UAB RESEARCH FOUNDATION, published 2003)

Biological target: T1, human DR5 on the cell surface (Cos-7 cells transfected with full-length human DR5 cDNA); human cells that … (human, UniProt O14763 56-440)
T1 construct: whole, on cells; also called cell surface DR5; full-length DR5
Test: radioisotope labeled TRA-8 on a breast cancer line in vitro; reference soluble TRAIL

B1: anti-human DR5 monoclonal antibody TRA-8 (mouse-mouse hybridoma TRA-8, ATCC PTA-1428) (antibody, mouse IgG1, kappa, V domains shown)
VH: EVMLVESGGGLVKPGGSLKLSCAASGFTFSSYVMSWVRQTPEKRLEWVATISSGGSYTYYPDSVKGRFTISRDNAKNTLYLQMSSLRSEDTAMYYCARRGDSMITTDYWGQGTTLTVSS
VL: DIVMTQSHKFMSTSVGDRVSITCKASQDVGTAVAWYQQKPGQSPKLLIYWASTRHTGVPDRFTGSGSGTDFTLTISNVQSEDLADYFCQQYSSYRTFGGGTKLEIKR
notes: also called monoclonal anti-DR5 antibody (clone: TRA-8); TRA-8 antibody
fold higher binding activity than soluble TRAIL: 50 fold
